Experiment: yeast display, Sf9 membrane polyspecificity reagent, FACS + sequencing; frameworks hold sequencing errors
Procedure, shortened: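 A nanobody's polyreactivity label depends on the gate it was sorted from. Yeast display cells were stained with 10% biotinylated, detergent-solubilized Sf9 membrane reagent for 1 hour at 4 °C, enriched on streptavidin microbeads and sorted by FACS. The low and high (top ~1%) gates were set on anti-HA fluorescence for expression and streptavidin fluorescence for reagent binding.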

Row | Sequence | polyreactivity (PSR sort gate)
1 | QVQLVESGGGLVQAGGSLRLSCAASGRIFAKNAMGWYRQAPGKERELVAAINHSGGSTYYADSVKGRFTISRDNAKNTVYLQMNSLKPEDTAVYYCAARGLTTRSPFYYWGQGTQVTVSS | high polyreactivity
2 | QVQLVESGGGIVQAGGSLRLSCAASGFNFLRYAMGWYRQAPGKERELVAAISTSGGSTSYADSVKGRFTISRDNAKNTVYLQMNSLNPEDTAVYYCNAVLYKVSISEYDYWGQGTQVTVSS | high polyreactivity
3 | QVQLVESGGGLVQAGGSLRLSCAASGSIFDTYAMGWYRQAPGKERELVATITRSGARTYYADSVKGRFTISRDNAKNTVYLQMNSLKPEDTAVYYCAALYYDDFGYEYDYWGQGTQVTVSS | low polyreactivity
4 | QVQLVESGGGLVQAGGSLRLSCAASGSTFGYYAMGWYRQAPGKERELVAAISGSGTSTYYADSVKGRFTISRDNAKNTVYLQMNSLKPEDTAVYYCATRYRYTGCGYWGQGSQVTVSS | low polyreactivity
5 | QVQLVESGGGLVQAGGSLRLSCAASGSTFDLYAMGWYRQAPGKERELVAGISRGGSTYYADSVKGRFTISRDNAKNTVYLQMNSLKPEDTAVYYCAAYFRYRSSRYGYWGQGTQVTVSS | high polyreactivity
6 | QVQHVESGGGLVQAGGSLRLSCAASGRIFYNYAMGWYRQAPGKEREFVADIDFNGGSTYYADSGKGRFTISRDNAKTTVYLQMNSLKPDDTAVYYSAAEQDDARYNAWWIGPMYSWGQGTQVTVSS | low polyreactivity
7 | QVQLVESGGGLVQAGGSLRLSCAASGRTFGRYAMGWYRQAPGKESELVAAISWTGGRTYYADSVKGRFTISRDNAKNTVYLQMNSLKPEDTAVYYGAALYDRIPAASRGYDSWGQVTQVTVSS | high polyreactivity
8 | QVQLVESGGGLVQAGGSLRLSCAASGFIFDDNAMGWYRQAPGKEREVVAAITSGGGSTYYADSVKGRFTISRDNAKNTVYLQMNSLKPEDTAVYYCNAVPSQHDEFDYWGQGTQVTVSS | low polyreactivity
9 | QVQLVESGGGLVQAGGSLRLSCAASGSNSDPYAMGWYRQAPGKEREFVAAITFSVSSTYYADSVKGRFTISRDNAKNTVYLQMNSLKPEDTAVYYCAARRPLYPERDYWGQGTQVTVSS | high polyreactivity
10 | QVQLVESGGGLVQAGGSLRLSCAASGFTFTYYAMGWYRQAPGKERELVATISSGGSTYYADSVKGRFTISRDNAKNTVYLQMNSLKPEDTAVYYCAAERGAITPLVYPPEFDYWGHGTQVTVSS | low polyreactivity
11 | QVQLVESGGGLVQAGGSLRLSCAASGSIFTEYAMGWYIQAPGKERELVAAISWSGATTYYADSVKGRFTISRDNAKNTVYLQMNSLKPEDTAVYYCAARWANRSYEYWGQGTQVTVSS | low polyreactivity
12 | QVQLVESGGGLVQAGGSLRLSCAASGSTFTGNAMGWYRQAPGKERELVAAITKGGSRTYYADSVKGRFTISRDNAKNTVYLQMNSLKPEDTAVYYCAATSRGTDYWGQGTQVTVSS | high polyreactivity
13 | QVQLVESGGGLVQAGGSLRLSCADSGSIFSKYAMGWYRQAPGKERELVAAISRSGGRTYYADSVKGRFTISRDNAKNTVYLQMNSLKPEDTAVYYCAADRSYYTWFGGDYWGQGTQVTVSS | high polyreactivity
14 | QVQLVESGGGLVQAGGSLRLSCAASGRTFQSNAMGWYRQAPGNERELVAAISRRGGSTYYADSVKGRFTISRDNEKNTVYLQMNCLKPEDTAVYYCNRDAKAGDWGQGTQVTVSS | high polyreactivity
15 | QVQLVESGGGLVQAGGSLRLSCAASGSTLAGYAMGWYRPAPGKERELVAAIDWTGGSTTYADSVKGRFTISRDNAKNTVYLQMNSLKPEDTAVYYCNVDLGVNGDYWGQGTQVTVSS | low polyreactivity
16 | QVQLVESGGGLVQAGGSLRLSCAASGSTFRYYAMGWYRQAPGKERELVAAITSGGSTNYADSVKGRFTISRDNAKNTVYLQMNSLKPEDTAVYYCAAGRRLRHRYNQGGPDYGYWGQGTQVTVSS | low polyreactivity
17 | QVQLVESGGGLVQAGGSLRLSCAASVISFARNVMGWYRQATGKERELVAGISRRGGSTYYADSVKGRFTISRDNAKNTVYLQMNSLKPEDTAVYYCAAEYIRNGDYGLDYWGQGTQVTVSS | high polyreactivity
18 | QVQLVESGGGLVQAGGSLRLSCAASGRIFTFYAMGWYRQAPGKERELVAAITSGGSTYYADSVKGRFTISRDNAKKTVYLQMNSLKPEDTAVYYCNTYPGSRHGWYDYWGQVTQVTVSS | high polyreactivity
19 | QVQLVESGGGLVQAGGSLRLSCAASGSIFVFNTMGWYRQAPGKERELVAAISDRGTRTYYADSVKGRFTISRDNAKNTVYLQMNSLKPEDTAVYYCATRVYFSPYRYDYWGQGTQVTVSS | high polyreactivity
20 | QVQLVESGGGLVQAGGSLRLSCAASGSTIYYNAMGWYRQAPGKERELVATITSAGRTNYADSVKGRFTISRDNAKNTVSLLMNSLKPEDTAVYYCNARYRLSRYNYWGQGTQVNVSS | low polyreactivity
21 | QVQLVESGGGLVQAGGSLRLSCAASGFIFPGYTRGWYRQAPGKEWELVAAISRGSSTYYADSVKGRFTISRDNAKNTVYLQMNSLKPEDTSVYYCNTRVYAITLYDYWGQGTQVTVSS | low polyreactivity
22 | QVQLEESGGGLVQAGGSLRLSCAASGIIFAYYAMGWYRQAPGKERELVGTNYADSVKGRFTISRDNAKNTVYLQMNSLKPEDTAVYYCAVVGGEFSSYGYWGQGTLVTVSS | low polyreactivity

Row | Sequence | polyreactivity (PSR sort gate)
23 | QVQLVESGGGLVQAGGSLRLSGAASGFIFDQNAMGGYRQPPGKVRELVAAISKRGGSTYYADSVKGRFTISRDNAMNTVYLQMNSLKPEDTAVYYCARPRRSVNFYKYIYNYWGQGTLVTVSS | high polyreactivity
24 | QVQLVESGGGLVQAGGSLRLSCAASGGIFDVYAMGWYRQAPGKERELVAAITASGGSTYYADSVKGRFTISRDNAKNTVYLQMNSLKPEDTAVYYCNAYYYYLFHRYDYWGQGTQVTVSS | low polyreactivity
25 | EVQLVESGGGLVQAGGSLRLTCAASGSIFPVYAMGWYRQAPGKERELVASISNGGTTYYADSVKGRFTISRDNAKNTVYLQMKSLKAEDTAVYYCAATGWAYGYGYGYWGQGSQVTVSS | low polyreactivity
26 | QVQLVESGGGLVQAGGSLRLSCAASGFTFRWYAMGWYRQAPGKERELVAAITSRGGTTYYADSVKGRFTISRDNAKNTVYLQMNSLKPEDTAVYYCAALNSGYIGMDYWGQGTQVTVSS | high polyreactivity
27 | QDQLVESGGGLVQAGGSLRLSCAASGRTFDDYAMGWYRQAPGKERELVAAISSSGGSTYYADSVKGRFSISRDNAKNTVYLQMNCLKPDDTAVYYCAADYDWGYWYDYWGQGTQVTVSS | low polyreactivity
28 | QVQLVESGGGLVQAGGSLRLSCAASGSIFRYYAMGWYRQAPGKERELVAAIRVSTGSTSYADSVKGRFTISRDNAKKSVYLQMNSLIPAVTAVYYCNARSRLVIAYRQHNYWGQGTQVTVSS | high polyreactivity
29 | QVQRVESGGGLVQAGGSLRLSCAASGLTFDPKDMGWYRQAPGKERELVAAISWSSGSTYYADSVKGRFTISRDNAKNTVYLQMNSLKPEYTAVYYCAAYFTLLFGTELYDYDYWGQGTQVTVSS | high polyreactivity
30 | QVQLVESGGGLVQAGGSLRVSCAASGSIFLIYGMGWYRQAPGKERELVAAITARGGSTYYADSVKGRFTISRDNAKNTVYLQMNSLKPEDTAVYYCNADGYPDVGAGTYGYWGLGTQVTVSS | low polyreactivity
31 | QVQLVESGGGLVQAGGSLRLTCAASGRIFSANAMGWYRLAPGKERELVAGIDSGGSTNYADSVKGRFTISGDNAKNTVYLQMNSLKPEDTAVYYCAKYRGRGNTYNGGYDYWGQVTQVTVSS | low polyreactivity
32 | QVQLVESGGGLVQAGGSLRVSCAASGRILPRYAMGWYRQAPGKEREFVARIDSGGSTNYADSVKGRFTISRDNAKNTVYIQMNSLKPEDTAVYYCAAVGTAQAYAYFTYGYDYWGQGTQVTVSS | low polyreactivity
33 | QVQLQESGGGLVQAGGSLRLSCAASGSIFDGFNMGWYRQAPGKEREFVAAISYGASTYYADSVKGRFTVSRDNAKNSVYLQMNSLKPEATAVYYCAVYDELYHVLVYWGRGTQVTVSS | low polyreactivity
34 | QVQLVESGGGLVQAGGSLRLSCAASVSTFYRNAMGWYRQAPGKERELVADISASGGSTYYADSVKGRFTISRDNAKNTVYLQMNSLKPEDTAVYYCNALYFYFYNYLTIVYWGQGTQVSVSS | low polyreactivity
35 | QVQLVESGGGLVQAGGSLRLSCAASGRIFVGNTMGWYRQAPGKERELVAAISWRGRTSYADSVKGRFTISRDNAKNTVYLQMNSLKPEDTAVYYCNAEHAGATRYYYIANWMDYWGQGTQVTVSS | low polyreactivity
36 | QVLLVEAGGGLVQAGGSLRLSCAASGRIFRRYAMGWYRQAPGKERELVAAISSGGGSTYYADSVKGRFTISRDNAKNTVYLQMNSLKPEDTAVYYCNTDFYYDDVSQAHDYWGQGTQVTVSS | high polyreactivity
37 | QVQLLESGGGLVQAGGSLRLSCAASGSIFGLYAMGWYRQAPGKERELVAALTWSSGNTYYADSVKGRFTISRDNAKNTVYLQMNSLKPEDTAVYYCSARVYRYGAMDYWGQGTQVTVSS | high polyreactivity
38 | QVQLVESGGGVVQAGGSLRLICAASGSTFGVYAMGWYRQAPGKERELFASISESGGNTYYADSVKGRFTISRDNAKNTVYLQMNSLKPDDTAVYYCNTDVVDVHYIQAYYWGQVTQVTVSS | low polyreactivity
39 | QVKLVESGGGLVQAGGSLRLSCPASGSTFVLNAMGWYRQAPGKERELVAAITWSGASTYYADSVKGRFTISRDNAKNTVYLQMNSLKPEDTAVYYCANDIPTDYKDVNYWGQGTQVTVSS | low polyreactivity
40 | QVQFVESGGGLVQAGGSLRLSCAASGSIFALYAMGWYRQAPGKERELVAAISYRGGRTYYADSVKGRFTISRDNAKNTVYLQMNSLKPEDTAVYYCATDFPGKFDYWGQGTQVTVSS | low polyreactivity
41 | QVQLVESGGGLVPAGGSLRLSCASSGITFRVYVMGWYRQAPGKESELVAPIDDNGGSTYYADSVKGRFTISRDNAKNTVYLQMNSLKPEDTAVYYCAKAIVYSLLEYGWVDYDDWGQGTQLTVSS | low polyreactivity
42 | QVQLVESGGGLVQAGGSLRLSCAASGSTVTSNAMGWSRQAPGKERELVAAISSGGSTYYADSVKGRFTISRDNAKNTVYLQMNSLKPEDTAVYYCAAEWHYIYAYDYWGQGTQVTVSS | low polyreactivity
43 | QVQLVESGGGLVQAGGSLRLSCAASGRIFHGYAMGWYRQAPGKESELVAAISSGGRTNYADSVKGRFTISRDNAKYTVYLQMNSLKPEDTAVYYCAAPVLTSDYTLDSYYWGQGTQVTVSS | high polyreactivity

— the nanobody polyreactivity screen of Harvey et al. (2022)
